{
  "source": "patent US20160108087A1",
  "about": "(ROYAL INSTITUTION FOR THE ADVANCEMENT OF LEARNING MCGILL …, published 2016)",
  "binders": {"B1": {"name": "14-3-3ε protein (mouse, endogenous in MA-10 mouse Leydig tumor cells) (other, UniProt P62259 1-255, looked up)", "chain": "MDDREDLVYQAKLAEQAERYDEMVESMKKVAGMDVELTVEERNLLSVAYKNVIGARRASWRIISSIEQKEENKGGEDKLKMIREYRQMVETELKLICCDILDVLDKHLIPAANTGESKVFYYKMKGDYHRYLAEFATGNDRKEAAENSLVAYKAASDIAMTELPPTHPIRLGLALNFSVFYYEILNSPDRACRLAKAAFDDAIAELDTLSEESYKDSTLIMQLLRDNLTLWTSDMQGDGEEQNKEALQDVEDENQ", "notes": "whole, on cells; Endogenous intracellular protein, detected in fixed cells (Duolink) or cell lysates (co-IP); also called YWHAE gene product; mitochondrial import stimulating factor"}, "B2": {"name": "14-3-3ε protein (rat, endogenous in testes sections of Sprague-Dawley rats) (other, UniProt P62260 1-255, looked up)", "chain": "MDDREDLVYQAKLAEQAERYDEMVESMKKVAGMDVELTVEERNLLSVAYKNVIGARRASWRIISSIEQKEENKGGEDKLKMIREYRQMVETELKLICCDILDVLDKHLIPAANTGESKVFYYKMKGDYHRYLAEFATGNDRKEAAENSLVAYKAASDIAMTELPPTHPIRLGLALNFSVFYYEILNSPDRACRLAKAAFDDAIAELDTLSEESYKDSTLIMQLLRDNLTLWTSDMQGDGEEQNKEALQDVEDENQ", "notes": "whole, on cells; Endogenous protein in tissue sections"}, "B3": {"name": "14-3-3ε protein (human, endogenous in NCL-H295R adrenocortical cells) (other, UniProt P62258 1-255, looked up)", "chain": "MDDREDLVYQAKLAEQAERYDEMVESMKKVAGMDVELTVEERNLLSVAYKNVIGARRASWRIISSIEQKEENKGGEDKLKMIREYRQMVETELKLICCDILDVLDKHLIPAANTGESKVFYYKMKGDYHRYLAEFATGNDRKEAAENSLVAYKAASDIAMTELPPTHPIRLGLALNFSVFYYEILNSPDRACRLAKAAFDDAIAELDTLSEESYKDSTLIMQLLRDNLTLWTSDMQGDGEEQNKEALQDVEDENQ", "notes": "whole, on cells; Endogenous protein"}, "B4": {"name": "TAT-VDAC1 fusion peptide S167 (TVS167) (peptide)", "peptide": "YGRKKRRQRRRGSKSRVTQSNFAVG", "notes": "A FAM-labelled form was used only to show cell penetration; also called TAT-VDAC1 Ser167; TV167"}},
  "key": {"[1]": {"target": "T1, VDAC1 protein (mouse, endogenous in MA-10 cells) (mouse, UniProt Q60932 14-296)", "T1 construct": "Endogenous protein of the outer mitochondrial membrane in MA-10 cells; also called voltage-dependent anion-selective channel protein 1; mVDAC1", "T1 sequence (Q60932 14-296)": "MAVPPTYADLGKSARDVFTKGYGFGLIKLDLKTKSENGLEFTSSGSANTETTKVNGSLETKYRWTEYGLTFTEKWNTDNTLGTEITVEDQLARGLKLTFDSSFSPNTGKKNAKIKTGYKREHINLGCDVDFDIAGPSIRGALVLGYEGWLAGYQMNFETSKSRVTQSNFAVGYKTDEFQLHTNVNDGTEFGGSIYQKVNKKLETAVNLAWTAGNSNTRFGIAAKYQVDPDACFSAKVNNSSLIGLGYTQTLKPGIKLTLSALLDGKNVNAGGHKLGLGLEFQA", "test": "Duolink in cell IP in MA-10 cells (figure legend)"}, "[2]": {"target": "T2, translocator protein (TSPO), mouse, endogenous in MA-10 cells (mouse, UniProt P50637 1-169)", "T2 construct": "whole, on cells; Endogenous outer mitochondrial membrane protein", "test": "Duolink in cell IP in MA-10 cells, signal/cell ratio, with TVS167 and 8-Br-cAMP (120 min)"}, "[3]": {"target": "T3, VDAC1 protein (rat, endogenous in testes sections of Sprague-Dawley rats) (rat, UniProt Q9Z2L0 1-283)", "T3 construct": "Endogenous protein in tissue sections", "test": "Duolink assay on rat testes sections (figure legend)"}, "[4]": {"target": "T4, VDAC1 protein (human, endogenous in NCL-H295R adrenocortical cells) (human, UniProt P21796 2-283)", "T4 construct": "Endogenous protein", "T4 sequence (P21796 2-283 limits assumed, stated change not applied)": "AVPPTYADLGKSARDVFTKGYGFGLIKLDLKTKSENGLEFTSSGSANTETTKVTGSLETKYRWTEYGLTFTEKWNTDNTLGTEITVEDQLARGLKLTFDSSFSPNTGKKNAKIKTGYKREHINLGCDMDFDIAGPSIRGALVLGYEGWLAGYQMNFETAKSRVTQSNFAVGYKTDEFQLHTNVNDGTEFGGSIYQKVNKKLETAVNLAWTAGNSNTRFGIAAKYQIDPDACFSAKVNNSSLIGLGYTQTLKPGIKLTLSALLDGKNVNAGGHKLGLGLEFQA", "test": "Duolink assay in human adrenocortical cell line (figure legend)"}, "[5]": {"target": "B1", "test": "Duolink in cell IP in MA-10 cells, competition with endogenous VDAC1, 250 nM peptide"}},
  "data": [
    {"binder": "B1", "values": [
      {"measurement": "binding result", "setting": "[1]", "result": "binds"},
      {"measurement": "fold increase of interactions in the presence of TVS167 against untreated control", "setting": "[2]", "result": 1.6, "unit": "fold"}
    ]},
    {"binder": "B2", "values": [
      {"measurement": "binding result", "setting": "[3]", "result": "binds"}
    ]},
    {"binder": "B3", "values": [
      {"measurement": "binding result", "setting": "[4]", "result": "binds"}
    ]},
    {"binder": "B4", "values": [
      {"measurement": "binding result", "setting": "[5]", "result": "binds"}
    ]},
    {"binder": "YGRKKRRQRRRGSKSRVTQGNFAVG (also called TVS167G)", "note": "[TAT-VDAC1 Gly167 (TVG167)]", "values": [
      {"measurement": "binding result", "setting": "[5]", "result": "binds"}
    ]},
    {"binder": "YGRKKRRQRRRGKLDLKTKSENGLE (also called TAT-VDAC1 Ser35)", "note": "[TAT-VDAC1 fusion peptide S35 (TVS35)]", "values": [
      {"measurement": "binding result", "setting": "[5]", "result": "binds"}
    ]},
    {"binder": "YGRKKRRQRRRGKLDLKTKGENGLE (also called TVS35G)", "note": "[TAT-VDAC1 Gly35 (TVG35)]", "values": [
      {"measurement": "binding result", "setting": "[5]", "result": "binds"}
    ]}
  ]
}
